Patent US8821836B2, “SPARC binding peptides and uses thereof” (Abraxis BioScience, LLC, priority 2008, dated 2014)

T1: SPARC (Homo sapiens, UniProt P09486)
T1 sequence (P09486 18-303): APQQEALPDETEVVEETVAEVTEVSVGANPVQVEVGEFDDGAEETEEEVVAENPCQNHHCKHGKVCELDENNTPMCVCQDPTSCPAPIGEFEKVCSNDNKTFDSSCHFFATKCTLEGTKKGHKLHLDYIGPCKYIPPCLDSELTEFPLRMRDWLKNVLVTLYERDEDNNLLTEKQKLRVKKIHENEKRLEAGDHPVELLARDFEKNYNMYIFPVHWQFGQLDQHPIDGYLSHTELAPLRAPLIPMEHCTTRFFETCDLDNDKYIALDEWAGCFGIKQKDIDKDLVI

B1: ScFv 2-1: unique ScFv against SPARC from HuScL-2 library, among SEQ ID NOs: 113-116 (protein)
scFv: EVQLLESGGGLVQPGGSLRLSCAASGFTFSSYAMSWVRQAPGKGLEWVSMITPLGSTTAYADSVKGRFTISRDNSKNTLYLQMNSLRAEDTAVYYCAKRAGVFDYWGQGTLVTVSSGGGGSGGGGSGGGGSTDIQMTQSPSSLSASVGDRVTITCRASQSISSYLNWYQQKPGKAPKLLIYRASTLQSGVPSRFSGSGSGTDFTLTISSLQPEDFATYYCQQNDSFPTTFGQGTKVEIKR
B2: ScFv 2-2: unique ScFv against SPARC from HuScL-2 library, among SEQ ID NOs: 113-116 (protein)
scFv: EVQLLESGGGLVQPGGSLRLSCAASGFTFSSYAMSWVRQAPGKGLEWVSHIQGQGRATYYADSVKGRFTISRDNSKNTLYLQMNSLRAEDTAVYYCAKTHGKFDYWGQGTLVTVSSGGGGSGGGGSGGGGSTDIQMTQSPSSLSASVGDRVTITCRASQSISSYLNWYQQKPGKAPKLLIYRASRLQSGVPSRFSGSGSGTDFTLTISSLQPEDFATYYCQQPSGVPTTFGQGTKVEIK
B3: ScFv 3-2: unique ScFv against SPARC from HuScL-3 library, among SEQ ID NOs: 113-116 (protein)
scFv: EIVMTQSPGTLSLSPGDRATLSCRASQSVSGYLAWYQQKPGQAPRLLIYDASNRATGIPARFSGSGSGTDFTLTISSLQAEDVAVYYCQQYYSTLPTFGQGTKLEIKRSGGSTITSYNVYYTKLSSSGTQVQLVQSGGGVVQPGRPLKLSCAASGFTFSSYAMHWVRQAPGKGLEWVAVISYDGSNKYYADSVKGRFTISRDNSKNTLYLQMNSLRAEDTAVYYCARDLSWNDAFDIWGQGTMVTVSSAS

target: T1, SPARC; assay: scFv phage display screening and soluble scFv ELISA with SPARC as antigen; assay type: binding
Description: The overall strategy was to first, screen a human antibody phage display libraries by ELISA with SPARC as antigen.
At the start, HuScL-3® was screened four rounds (three rounds with acidic elution and one round with competitive elution) and 17 positive clones were selected by phage ELISA. […] After that, the binding specificity of the two unique antibodies was validated by soluble scFv ELISA.
Next, HuScL-2® was screened for three rounds (two rounds with trypsin-digestion elution and one round with competitive elution). In the end, 30 positive clones were selected by phage ELISA. According to the sequencing results, 29 clones shared one antibody sequence and the remaining one clone encoded another unique antibody. After that, the binding specificity of these two antibodies was validated by soluble scFv ELISA as well.

| Molecule | SPARC binding of scFv |
| --- | --- |
| B1 | SPARC binding activity |
| B2 | SPARC binding activity |
| B3 | SPARC binding activity |
